According to patent US20080305099:

Columns and labels:
[1] = test system: ACTH (adrenocorticotropic hormone)
Aβ42 = Aβ42 (UniProt P05067)
synthetic Aβ40 = synthetic Aβ40 (UniProt P05067)

Substance: recombinant GCP-II protein purified from insect cells (Sf21)
- MALDI-TOF molecular weight after reaction with GCP-II at 37° C. for 15 hours [1]: characteristically not degraded by GCP-II
- MALDI-TOF molecular weight after reaction with GCP-II at 37° C. for 15 hours (amylin): amylin showed two peaks at 1500 and 2000 after being reacted with GCP-II
- Western blot (anti-Aβ antibody 6E10) of Aβ matured for 7 days after 20 hours with rGCP-II (Aβ (length not stated)): Aβ in oligomer form (multimer) was reduced faster than Aβ monomer
- endogenous Aβ42 remaining (ELISA) in the medium of swAPP stable HEK293 colony #2 with 0, 0.5, 2.5 and 10 of rGCP-II (Aβ42): the level of endogenous Aβ42 was decreased
- MALDI-TOF of Aβ40 reacted with GCP-II protein at more than 25 ng/µL (synthetic Aβ40): only one peak was observed at 2,167 which corresponds to Aβ18
- MALDI-TOF of Aβ40 reacted with GCP-II protein for 20 hours (synthetic Aβ40): two new peaks were observed at 3915 and 2662 in Aβ reacted with 0.5 ng/µM of GCP-II
- MALDI-TOF of Aβ reacted with GCP-II inactivated by heating (boiled rGCP-II) (synthetic Aβ40): Aβ was not degraded by the inactivated GCP-II
- MALDI-TOF molecular weight after reaction with GCP-II at 37° C. for 15 hours (insulin β-chain): characteristically not degraded by GCP-II
